In one data set the test system is CD8+ T-cells. Kind of data set: LSC/T-cell reaction assay. It is filed as cell-based, human. As to conditions: B2M/HLA-Class I negative LSCs co-cultured 10 days with CD8+ T-cells from 4 donors. As for the experimental part: An LSC/T-cell assay was performed in flat bottom 96well synthemax coated plates in duplicates and incubated in 5% CO2 at 37° C. for 10 days. RPMI-1640 supplemented with HEPES (100 µM), non-essential aas (10x), sodium pyruvate (10 mM), 2-Mercapthoethanol (10x), 10% FBS and 1% Penicillin-Streptomycin (Gibco by Life Technologies) was used as medium for co-culture. Alternatively, RPMI-1640 supplemented with HEPES (10 mM), non-essential aas (1x), sodium pyruvate (1 mM), 2-Mercapthoethanol (1x), 10% FBS and 1% Penicillin-Streptomycin (Gibco by Life Technologies) was used as medium for co-culture.
One day before co-culture, LSCs (stimulator cells) were passed and cultured to a confluency of around 70% (30′000 - 50′000 cells) and cultured with LSC medium including compound. On day two, peripheral blood mononuclear cells (PBMC) were separated using EDTA blood with the Ficoll-Paque method (GE Healthcare Life Sciences, cat #17-1440-03). […]
After 10 days, CD8+ cells were transferred to a U-bottomed 96-well plate and washed 3 times using autoMAC rinsing solution (Miltenyi Biotec, Cat #130-091-222) including MACS BSA stock solution (Miltenyi Biotec, Cat #130-091-376). Cells were measured on a BD LSRFortessa X-20. FACS data were analyzed using BD FACSDiva software and FlowJo software.

Data set [1] relates to B2M. The experiment in a line: sgRNA screening for B2M knockout in LSCs (nucleofection, FACS). Type of data set: cell-based, human. To be noted: Cas9 protein SEQ ID NO: 106, LSCs at passage 3, FACS after around 3 days.
Data set [2] concerns genomic DNA purified from male human peripheral blood mononuclear cells. The experiment in a line: Biochemical assay for potential off-target genomic sites cleaved by Cas9 and B2M guides. As to conditions: number of potential off-target sites, guide concentration 64 nM. The method, then:
A biochemical method (See, e.g., Cameron et al., Nature Methods. 6, 600-606; 2017) was used to determine potential off-target genomic sites cleaved by Cas9 and selected B2M guides. Guides showing B2M indel activity were tested for potential off-target genomic cleavage sites with this assay. […] The number of potential off-target sites detected using a guide concentration of 64 nM in the biochemical assay are shown in Table 10. As a result of this analysis, several gRNAs were selected for analysis of potential off-target activity in limbal stem cells.

Data set [3] concerns B2M. The experiment in a line: Targeted PCR and NGS (amplicon sequencing) of on-target and off-target sites in genome-edited LSCs. It is filed as cell-based, human. As to conditions: for Number of sites positive for off-target activity in LSCs: of the potential off-target loci sequenced; for B2M purified rhAmpSeq indel: purified (B2M negative) LSC populations. The method, then:
Potential CRISPR/Cas9-mediated cutting sites identified above were evaluated using targeted PCR and NGS in genome-edited expanded LSCs.
Selected sgRNAs (SEQ ID NO: 120, 162, 166, 167, 171, and 175) were further analyzed by amplicon sequencing in edited and non-edited cells. Primers flanking the potential off-target sites for each guide were used to detect indels by NGS analysis in edited LSCs and non-edited peripheral blood mononuclear cells. Sites that had either (1) a difference in mean indel percentage between edited and unedited cells greater than 0.5%; or (2) a p value less than 0.05 between edited and unedited indel were further analyzed. NGS sequence reads for such sites were assessed for characteristic indel patterns near the putative Cas9 cut site. Based on the results, we could assess the specificity of gRNAs and their suitability for therapeutic applications.

B1: 1-CR004366: gRNA targeting human B2M; targeting domain SEQ ID NO: 108; sgRNA SEQ ID NO: 120; from Dharmacon (nucleic acid)
guide: GAGUAGCGCGAGCACAGCUAGUUUUAGAGCUAGAAAUAGCAAGUUAAAAUAAGGCUAGUCCGUUAUCAACUUGAAAAAGUGGCACCGAGUCGGUGCUUUU
modifications: listed as RNA, chemistry not given here
notes: gRNA targeting human B2M; from Dharmacon
For the molecule B1, the “T-cell immune response in co-culture with gene edited LSCs” value in the data set on CD8+ T-cells was “almost completely eliminated”. The “B2M knockout efficiency in LSCs after nucleofection” value in the data set on B2M [1] was 55%. Moreover, the “off-target Site_ Count” value in data set [2] is 69. Further, the “validated indels for off-target activity in LSCs” value in the data set on B2M [3] (amplicon sequencing of potential off-target loci) is “zero”. Moreover, in the data set with B2M [3], the “Number of sites positive for off-target activity in LSCs” value is reported as 0 of 64 and the “B2M purified rhAmpSeq indel” value is 99.60±0.44%. For the same molecule, in the data set with B2M [3] (listed as SEQ ID NO: 120), the “Number of sites positive for off-target activity in LSCs” value is listed as “no predicted sites tested positive for off-target activity” and the “B2M purified rhAmpSeq indel” value is recorded as ~ 99%.

Values taken from patent US20230348852A1, “METHODS AND COMPOSITIONS FOR OCULAR CELL THERAPY” (NOVARTIS AG, priority 2020, published 2023).
